From publication PMC8799735, “Depletion of mitochondrial methionine adenosyltransferase α1 triggers mitochondrial dysfunction in alcohol-associated liver disease” (Nature Communications, 2022)

Experiments:
Conditions in all cases: partners not purified
[1] = target: T1, Peptidyl-prolyl cis/trans isomerase NIMA-interacting 1 (PIN1), endogenous human (human (endogenous in human hepatocytes, …, UniProt Q13526 1-163)); assay: co-IP; human normal and end-stage cirrhotic ALD liver lysates; IP with anti-PIN1 or anti-MATα1 antibodies, western blot against MATα1 or PIN1, densitometry
T1 construct: source: endogenous, human hepatocyte lysate, human liver lysates and HepG2 lysate

[2] = target: T2, Peptidyl-prolyl cis/trans isomerase NIMA-interacting 1 (PIN1), endogenous mouse (mouse (endogenous in mouse hepatocytes, …, UniProt Q9QUR7 1-165)); assay: co-IP; AML-12 cell lysates, control or ethanol (100 mM, 48 h); IP with anti-PIN1 or anti-MATα1 antibodies, western blot, densitometry
T2 construct: source: endogenous, mouse hepatocyte lysate, mouse liver whole lysates and cytosolic fractions, AML-12 lysate

[3] = target: T2, Peptidyl-prolyl cis/trans isomerase …; assay: co-IP; whole liver lysates of pair-fed and ethanol-fed mice (NIAAA model); IP with anti-PIN1 or anti-MATα1 antibodies, western blot against MATα1 or PIN1, densitometry

T2 sequence (Q9QUR7 whole entry): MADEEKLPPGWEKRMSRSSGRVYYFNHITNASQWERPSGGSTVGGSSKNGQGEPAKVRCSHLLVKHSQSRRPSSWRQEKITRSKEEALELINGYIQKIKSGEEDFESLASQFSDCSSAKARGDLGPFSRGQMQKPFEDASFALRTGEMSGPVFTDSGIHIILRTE
T1 sequence (Q13526 whole entry): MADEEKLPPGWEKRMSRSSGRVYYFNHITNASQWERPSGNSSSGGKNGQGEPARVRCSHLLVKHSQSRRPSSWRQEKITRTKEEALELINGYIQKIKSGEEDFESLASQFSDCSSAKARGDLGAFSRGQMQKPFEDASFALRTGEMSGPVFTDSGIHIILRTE

Row | Binder | fold of co-precipitated signal, alcoholic cirrhotic livers against normal human livers [1] [fold] | fold of co-precipitated signal, ethanol-treated against control AML-12 cells [2] [fold] | fold of co-precipitated signal, ethanol-fed against pair-fed mouse livers [3] [fold]
1 | Methionine adenosyltransferase α1 (MATα1), endogenous human (natural protein, Methionine adenosyltransferase α1 (MATα1), human, endogenous in hepatocytes and liver; source: endogenous, human hepatocyte lysate and human liver lysates (normal, ALD)) not shown | 3.3 |  | 
2 | Methionine adenosyltransferase α1 (MATα1), endogenous mouse (natural protein, Methionine adenosyltransferase α1 (MATα1), mouse, endogenous; source: endogenous, mouse hepatocyte lysate, mouse liver whole lysates and cytosolic fractions, AML-12 lysate) not shown |  | 3.5 | 2
